# Measured values published in patent US20250361305A1 (ORIONIS BIOSCIENCES, published 2025).
# Key:
# [1] = molecular target: T1, PD-L1 antigen (ELISA of Example 2) (human, UniProt Q9NZQ7 19-239, limits assumed); assay: ELISA, signal on PD-L1 antigen
# [2] = molecular target: T1, PD-L1 antigen (ELISA of Example 2); assay: ELISA, signal on PD-L1 antigen over control
# T1 sequence (Q9NZQ7 19-239 limits assumed): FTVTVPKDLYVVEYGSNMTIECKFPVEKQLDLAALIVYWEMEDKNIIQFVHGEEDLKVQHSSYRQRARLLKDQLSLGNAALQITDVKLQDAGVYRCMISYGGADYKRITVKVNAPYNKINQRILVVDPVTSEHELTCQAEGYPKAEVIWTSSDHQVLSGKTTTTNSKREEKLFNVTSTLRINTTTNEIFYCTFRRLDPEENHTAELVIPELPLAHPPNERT
Binder,ELISA [1],A/control [2]
"2LIG2 (VHH, PD-L1 VHH) VHH: QVQLQESGGGLVQAGGSLRLSCAASGFTLDYYAIGWFRQAPGKEREEVSCISSSDGSTYYADSVKGRFTISRDNAKNTVNLQMNSLKPEDTAVYYCATDGWSSCRHGINEYLYWGQGTQVTVSS",0.51,3.86
"2LIG27 (VHH, PD-L1 VHH) VHH: QVQLQESGGGVVQAGGSLRLSCTASGTIFSINRMDWFRQAPGKQRELVALITSDGTPTYADSAKGRFTISRDNTKKTVSLQMNSLKPEDTAVYYCHVSSGVYNYWGQGTQVTVSS",0.429,3.78
"2LIG3 (VHH, PD-L1 VHH) VHH: QVQLQESGGGLVQAGGSLRLSCTASGTIFSINHMDWFRQAPGKQRELVALITSDGFPTYADSAKGRFTISRDNTKKTVSLQMNSLKPEDTAVYYCHVSSGVYNYWGQGTQVTVSS",1.46,9.75
"2LIG34 (VHH, PD-L1 VHH) VHH: QVQLQESGGGSVQAGGSLRLSCTASGTIFSINRMDWFRQAPGKQRELVALITSDGTPTYADSAKGRFTISRDNTKKTVSLQMNSLKPEDTAVYYCHVSSGVYNYWGQGTQVTVSS",0.568,3.59
"2LIG97 (VHH, PD-L1 VHH) VHH: QVQLQESGGGLVQAGESLRLSCTASGTIFSINRMDWFRQAPGKQRELVALITSDGTPTYADSAKGRFTISRDNTKKTVSLQMNSLKPEDTAVYYCHVSSGVYNYWGQGTQVTVSS",1.03,5.13
"2LIG99 (VHH, PD-L1 VHH) VHH: QVQLQESGGGLVQAGGSLRLSCTASGTIFSINRMDWFRQAPGKQRELVALITSDGTPAYADSAKGRFTISRDNTKKTVSLQMNSLKPEDTAVYYCHVSSGVYNYWGQGTQVTVSS",2.11,9.16
"2LIG48 (VHH, PD-L1 VHH) VHH: QVQLQESGGGLVQPGGSLRLSCAASGFTFNDYAMSWVRQAPGKGLEWVSGIRSNGGYTNYADSVKGRFTISRDNAKNTLYLQMNSLKSEDTAVYYCAQGYYCSGYGCYPGQGTQVTVSS",4,33.2
"2LIG16 (VHH, PD-L1 VHH) VHH: QVQLQESGGGLVQPGGSLRLSCAASGFTFDDYGMSWVRQAPGKGLEWVSAIRWNGGSTNYADSVKGRFTISRDNAKNTLYLQMNSLKSEDTAVYYCAQGYYCSGYGCPRGQGTQVTVSS",3.02,26.4
"2LIG22 (VHH, PD-L1 VHH) VHH: QVQLQESGGGLVQPGGSLRLSCAASGFTLDYYAINWFRQAPGKEREEVSCISSSDGSTYYADSVKGRFTISRDNAKNTVYLQMNSLKPEDTAVYYCATSGWRLCRPTDEYDYSYWGQGTQVTVSS",0.469,4.55
"3LIG7 (VHH, PD-L1 VHH) VHH: QVQLQESGGGLVQAGGSLRLSCAASGFTFSSYGMSWVRQTPGKGPEWVSAIDSGGGSTSYADSVKGRFTISRDNAKNTLYLQMNSLKPEDTAVYYCAQGYYCSGYGCSDYWGQGTQVTVSS",3.64,37.6
"2LIG29 (VHH, PD-L1 VHH) VHH: QVQLQESGGGLVQTGGSLRLSCAASGFTFSSYGMSWVRQTPGKGPEWVSAIDSGGGSTSYADSVKGRFTISRDNAKNTLYLQMNSLKPEDTAVYYCAQGYYCSGYGCSDYWGQGTQVTVSS",3.77,34.6
"2LIG35 (VHH, PD-L1 VHH) VHH: QVQLQESGGGLVQPGGSLRLSCAASGFTFSSYGMSWVRQTPGKGPEWVSAIDSGGGSTSYADSVKGRFTTSRDNAKNTLYLQMNSLKPEDTAVYYCAQGYYCSGYGCSDYWGQGTQVTVSS",0.844,8.18
"2LIG30 (VHH, PD-L1 VHH) VHH: QVQLQESGGGLVQPGGSLRLSCAASGKIFSGNDMGWYRQAPGKQRELVGIITSGGITDYADAVKGRFTISRDNAKNMMYLQMNSLKPEDTAVYYCNMRDRTIWWGQGTQVTVSS",1.11,9.59
"3LIG18 (VHH, PD-L1 VHH) VHH: QVQLQESGGGLVQPGGSLRLSCAASGFNLDPYAIAWFRQAPGKEREEVSCISSSDVGTYYADSVKGRFTISRDNAKKTVYLQMNSLKPEDTAVYYCATDGYYYCSDYPHPLYWGQGTQVTVSS",3.5,40
"2LIG65 (VHH, PD-L1 VHH) VHH: QVQLQESGGGLVQAGGSLRLSCAASGFNLDPYAIAWFRQAPGKEREEVSCISSSDVGTYYADSVKGRFTISRDNAKKTVYLQMNSLKPEDTAVYYCATDGYYYCSDYPHPLYWGQGTQVTVSS",2.11,23.6
"2LIG89 (VHH, PD-L1 VHH) VHH: QVQLQESGGGLVQPGGSLRLSCAASGFNLDPYAIAWFRQAPGKEREEVSCISSSDVGTYYADSVKGRFTISRDNTKKTVYLQMNSLKPEDTAVYYCATDGYYYCSDYPHPLYWGQGTQVTVSS",2.88,27.2
"2LIG85 (VHH, PD-L1 VHH) VHH: QVQLQESGGGLVQPGGSLRLSCAASGFTFTAYAMSWFRQAPGKEREEVSCINSSDGSTYYADSVKGRFTISRDNAKNTVYLQMNSLKPEDTAVYHCATDGWRDCTWSNEYAYWGQGTQVTVSS",2.67,22.6
"2LIG86 (VHH, PD-L1 VHH) VHH: QVQLQESGGGLVQPGGSLRLSCAASGFTFDYYAIGWFRQAPGKEREEVSCISGSDSSTYYADSVKGRFTIVRDNAQNTVYLQMNSLKPEDTAIYYCAVTGWRTCRGLNEYDYWGQGTQVTVSS",3.8,33.6
"3LIG3 (VHH, PD-L1 VHH) VHH: QVQLQESGGGLVQPGGSLRLSCAASGFTLDYYAIGWFRQAPGKEREEVSCISSSDGSTYYADSVKGRFTISRDNAKNTVNLQMNSLKPEDTAVYYCATDGWSSCRHGINEYLYWGQGTQVTVSS",0.58,7.16
"3LIG9 (VHH, PD-L1 VHH) VHH: QVQLQESGGGLVQPGGSLRLSCAASGFTFSSYGMSWVRQTPGKGPEWVSAIDSGGGSTSYADSVKGRFTISRDNAKNTLYLQMNSLKPEDTAVYYCAQGYYCSGYGCSDYWGQGTQVTVSS",3.66,37.7

# The remaining lines, values ahead:
ELISA [1],A/control [2],Binder
0.429,4.39,"3LIG8 (VHH, PD-L1 VHH) VHH: QVQLQESGGGLVQPGGSLRLSCTASGTIFSINRMDWFRQAPGKQRELVALITSDGTPTYADSAKGRFTISRDNTKKTVSLQMNSLKPEDTAVYYCHVSSGVYNYWGQGTQVTVSS"
4,47.3,"3LIG30 (VHH, PD-L1 VHH) VHH: QVQLQESGGGTVQAGGSLRLSCAASGFTFNDYAMSWVRQAPGKGLEWVSGIRSNGGYTNYADSVKGRFTISRDNAKNTLYLQMNSLKSEDTAVYYCAQGYYCSGYGCYPGQGTQVTVSS"
3.03,33.2,"3LIG28 (VHH, PD-L1 VHH) VHH: QVQLQESGGGLVQPGGSLRLSCAASGFTLDYYAINWFRQAPGKEREEVSCISSSDGSTYYADSVKGRFTISRDNAKNTVYLQMNSLKPEDTAVYYCATSGWRLCRPTDEYDYLYWGQGTQVTVSS"
3.55,32.6,"2LIG109 (VHH, PD-L1 VHH) VHH: QVQLQESGGGLVQSGGSLRLSCKTSGFTFSSYGMSWVRQTPGKGPEWVSAIDSGGGSTSYADSVKGRFTISRDNAKNTLYLQMNSLKPEDTAVYYCAQGYYCSGYGCSDYWGQGTQVTVSS"
2.23,12.9,"2LIG189 (VHH, PD-L1 VHH) VHH: QVQLQESGGGLVQAGGSLRLSCAASGKIFSGNDMGWYRQAPGKQRELVGIITSGGITDYADAVKGRFTISRDNAKNMMYLQMNSLKPEDTAVYYCNMRDRTIWWGQGTQVTVSS"
3.73,34.6,"2LIG127 (VHH, PD-L1 VHH) VHH: QVQLQESGGGLVQPGGSLRLSCAASGFNLDPYAIGWFRQAPGKEREEVSCISSGDGSKYYADSVKGRFTMSRDNAKKTVYLQMNSLKPEDTAVYYCATDGYYYCSDYPHPLYWGQGTQVTVSS"
4,33.3,"2LIG139 (VHH, PD-L1 VHH) VHH: QVQLQESGGGLVQPGGSLRLSCAVSGFNLDPYAIAWFRQAPGKEREEVSCISSSDVGTYYADSVKGRFTISRDNAKKTVYLQMNSLKPEDTAVYYCATDGYYYCSDYPHPLYWGQGTQVTVSS"
0.415,4.22,"2LIG176 (VHH, PD-L1 VHH) VHH: QVQLQESGGGLVQAGGSLRLSCAASESIFSIEAMGWYRQAPGKQRELVAAIFGGGFTNYADSVKGRFTISRDNANRTVYLQMNSLKPEDTAVYYCNADLVSGSSRLYDYWGQGTQVTVSS"
1.76,19.1,"3LIG33 (VHH, PD-L1 VHH) VHH: QVQLQESGGGLVQPGTSLRLSCAASGFTLDYYAIGWFRQAPGKEREEVSCISSSDGSTYYADSVKGRFTISRDNAKNTVNLQMNSLKPEDTAVYYCATDGWSSCRHGINEYLYWGQGTQVTVSS"
3.96,40.9,"3LIG29 (VHH, PD-L1 VHH) VHH: QVQLQESGGGLVQAGGSMRLSCAASGFTFSSYGMSWVRQTPGKGPEWVSAIDSGGGSTSYADSVKGRFTISRDNAKNTLYLQMNSLKPEDTAVYYCAQGYYCSGYGCSDYWGQGTQVTVSS"
